Data taken from the supplement of paper PMC10724198.
± gives the standard deviation of the averaged measurements.

The sequences below were run on Saccharomyces cerevisiae (assay: protein stability index of tFT-peptide fusion (C-terminal peptide) (PSI (0-1 scale)); higher = more stable (slower turnover)). Conditions: genetic background: wild type; temperature: 30 C.
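Also: PSI is a weighted mean of sequencing reads over stability bins, variants kept only with over 10 reads, mCherry proximal and sfGFP distal, peptide attached via GGGS linker.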

Sequence | protein stability index
PHSPLSPAPQSP | 0.787 ± 0.02
FRHSSAVLAPGV | 0.6896 ± 0.0057
WLESHVSRGLTT | 0.64 ± 0.021
DLVQFATEILMI | 0.612 ± 0.0064
EPIMVKKACTDG | 0.645 ± 0.029
VVCGARGDGRCE | 0.6834 ± 0.0068
QPPLPTRLNHRQ | 0.651 ± 0.045
ARGRSACGKLIY | 0.654 ± 0.017
LWGIAGSGVLVG | 0.635 ± 0.0069
PPARATPHDRCP | 0.724 ± 0.037
VPRLARTRPKHA | 0.641 ± 0.042
PHVCPVLSAAGR | 0.629 ± 0.044
PPPHASLSHCHS | 0.687 ± 0.11
LGFDRGGGGAGM | 0.675 ± 0.062
GSSRMACYCKHS | 0.644 ± 0.051
PPPLPLPPITPT | 0.53 ± 0.078
ARRAWPPPTPLF | 0.719 ± 0.058
PPFSPSPPHVCP | 0.673 ± 0.045
RCFSLFYIYCPA | 0.525 ± 0.0065
RVQMTTHGCLIS | 0.766 ± 0.15
RRCRPPTRRTKE | 0.587 ± 0.053
WFGSPRCVGGQL | 0.703 ± 0.03
FFRDDNRDHKRT | 0.689 ± 0.017
RNTRAPTRNVPE | 0.674 ± 0.028
LVCLFRGCGLRD | 0.714 ± 0.0084
PPPRPLPVLFLP | 0.611 ± 0.06

Sequence | protein stability index
GARWGWGRKGSR | 0.692 ± 0.072
NPLRTQASTTAQ | 0.72 ± 0.096
GGPPPHHKTRPG | 0.603 ± 0.063
TNNTKRDKKRIQ | 0.703 ± 0.16
VLSGAPGLIVYA | 0.602 ± 0.043
WPLVLSYRKESA | 0.803 ± 0.22
LLPPCYFFLTSP | 0.637 ± 0.093
LNYRVLTKVDER | 0.717 ± 0.048
DILACAPCRRGP | 0.704 ± 0.022
RQLPPRAPAARG | 0.661 ± 0.028
PPLPPPVYHSLP | 0.6855 ± 0.0027
RFGGGPCRSVGC | 0.7331 ± 0.0059
RKSERIKNKNGR | 0.715 ± 0.037
LVLYPFPPLHST | 0.6749 ± 0.0053
PVSSFQHSLPWL | 0.708 ± 0.03
PPPDSSLPLGSP | 0.688 ± 0.0081
CSPLIISDATSR | 0.713 ± 0.082
GRRWVGAVVEGV | 0.684 ± 0.043
CKEGLGSGRWGR | 0.717 ± 0.018
NKRKSKKRNEIE | 0.6701 ± 0.0054
GQAWVEITARDS | 0.748 ± 0.075
GCGAVEGFGVGW | 0.625 ± 0.03
GLSSAVSPSFGR | 0.598 ± 0.017
RVGWCGGGRGGR | 0.658 ± 0.048
LLHYPHVPLSPI | 0.662 ± 0.021
WTCMNRRMREED | 0.739 ± 0.072

Sequence | protein stability index
CRSGERSHKMLL | 0.63 ± 0.011
SVIGLNLVGMGW | 0.641 ± 0.046
KRRKREEKKSMT | 0.742 ± 0.097
LFRLFFVKACRF | 0.516 ± 0.0025
RGKTIQGNADPK | 0.672 ± 0.032
IGEGLLFWFGIR | 0.66 ± 0.042
AFFRLSLPGARA | 0.654 ± 0.011
KRNCVVLLPMDR | 0.682 ± 0.23
SPPLPSAPPPPR | 0.664 ± 0.027
TFDNEYKRSRKV | 0.678 ± 0.033
PDCVRVSGLGLS | 0.665 ± 0.045
RRWSPPGLGCIE | 0.735 ± 0.019
CLPPPARLPAPR | 0.683 ± 0.033
PTTLTTPTPPHR | 0.7161 ± 0.0022
MDGRVMAETCRA | 0.585 ± 0.038
GWGCARRRGGRV | 0.683 ± 0.015
WVSSRSSVVARG | 0.653 ± 0.043
PLSPTTRTRSQS | 0.642 ± 0.067
PPPRPTPAPPRV | 0.65 ± 0.032
LLAPPLPAVPSF | 0.731 ± 0.006
LPSLPPPPSPSS | 0.641 ± 0.029
LPPLPHLLSLYL | 0.658 ± 0.076
ILWFYSDSPWLS | 0.763 ± 0.11
RKPTSFFSRIVN | 0.611 ± 0.026
DAKPNMATGLSI | 0.703 ± 0.027
SRCPLLNGIGFR | 0.6471 ± 0.0025

Sequence | protein stability index
LFWARLSLVSLS | 0.495 ± 0.041
PPPPPPPHSSLS | 0.709 ± 0.0078
YHARPQALPSRP | 0.658 ± 0.055
YSWRAKGVKRLR | 0.659 ± 0.029
KKGRAEKKKRRK | 0.65 ± 0.051
RTLWGYCPRSPL | 0.718 ± 0.021
SGAGAMPPCSLP | 0.697 ± 0.029
PPPPLPPPSPPL | 0.7319 ± 0.0043
PSQPYPSSQYIL | 0.73 ± 0.047
ATGGGSFKRRVS | 0.53 ± 0.014
PVLYPPPPFPPY | 0.747 ± 0.0095
PNLIFHHSFSFL | 0.692 ± 0.031
AAEKSPQQADAD | 0.709 ± 0.013
CSRGRNSDNNLI | 0.631 ± 0.043
RRPCTSSHAKAP | 0.692 ± 0.021
GVRIVRRGLRRV | 0.731 ± 0.013
PRPPAPPDPAPP | 0.746 ± 0.072
MSLLCPSPPFPT | 0.695 ± 0.068
CARPVLSAGSWQ | 0.673 ± 0.065
PNYQRRTKTNSP | 0.703 ± 0.04
RLSSLRAFSLRS | 0.721 ± 0.026
NMKPPTNKGSNK | 0.675 ± 0.054
EVRWIGLPMCTS | 0.6524 ± 0.0023
